Like-named read-outs stand apart in the source and are kept apart here. Blank lines part the entries; values can stand above or below the molecule they belong to.
Experiments:
Assay in all cases: ITC
[1] = biological target: dP75 IBD-containing C-terminus region (residues 209-445) (Drosophila)
[2] = biological target: PWWP domain of dP75 (residues 8-91) (Drosophila)
[3] = biological target: dP75 IBD-containing C-terminus region (residues 209-445) (Drosophila); remark: listed apart in the source

Kd [1]: 0.8 µM
Molecule: Jil-1 peptide from the proximal site (…; residues 984-1004)

Kd [2]: > 500 µM
Molecule: H3K36me3 peptide

Kd [3]: 120 µM
Molecule: KREENFYGFSK [Jil-1 peptide at the distal site (…; residues 1102-1112)]
